These results are taken from US20190375812A1.

This test addresses IL2Rαβγ, the high affinity IL-2 receptor, on human Treg cells (human) (UniProt P01589). The test is described as follows: cell-based or functional assay.

Chain of IL2Rαβγ, the high affinity IL-2 receptor, on human Treg cells (human) (P01589 22-272, chain 1 of 3): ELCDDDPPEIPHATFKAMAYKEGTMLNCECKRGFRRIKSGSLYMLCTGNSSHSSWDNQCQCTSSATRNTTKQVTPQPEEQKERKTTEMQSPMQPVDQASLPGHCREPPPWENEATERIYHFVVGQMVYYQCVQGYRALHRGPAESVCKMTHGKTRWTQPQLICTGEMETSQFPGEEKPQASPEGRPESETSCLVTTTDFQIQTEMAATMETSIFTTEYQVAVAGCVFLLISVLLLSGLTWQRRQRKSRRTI
Chain of IL2Rαβγ, the high affinity IL-2 receptor, on human Treg cells (human) (P14784 27-551, chain 2 of 3, further chain): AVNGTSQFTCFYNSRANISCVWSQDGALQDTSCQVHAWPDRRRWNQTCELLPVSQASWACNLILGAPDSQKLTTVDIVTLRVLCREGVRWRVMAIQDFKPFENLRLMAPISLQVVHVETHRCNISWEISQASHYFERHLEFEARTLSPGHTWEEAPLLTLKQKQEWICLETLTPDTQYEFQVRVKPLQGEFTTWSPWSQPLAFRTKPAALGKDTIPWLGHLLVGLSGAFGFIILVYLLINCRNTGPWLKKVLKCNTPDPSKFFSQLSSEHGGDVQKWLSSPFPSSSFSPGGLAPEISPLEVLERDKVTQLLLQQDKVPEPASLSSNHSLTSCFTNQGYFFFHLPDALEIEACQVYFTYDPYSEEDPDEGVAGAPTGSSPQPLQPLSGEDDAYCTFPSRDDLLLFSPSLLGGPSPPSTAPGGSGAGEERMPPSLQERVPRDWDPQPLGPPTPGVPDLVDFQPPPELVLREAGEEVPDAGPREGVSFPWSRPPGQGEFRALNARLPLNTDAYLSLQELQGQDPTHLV
Chain of IL2Rαβγ, the high affinity IL-2 receptor, on human Treg cells (human) (P31785 23-369, chain 3 of 3, further chain): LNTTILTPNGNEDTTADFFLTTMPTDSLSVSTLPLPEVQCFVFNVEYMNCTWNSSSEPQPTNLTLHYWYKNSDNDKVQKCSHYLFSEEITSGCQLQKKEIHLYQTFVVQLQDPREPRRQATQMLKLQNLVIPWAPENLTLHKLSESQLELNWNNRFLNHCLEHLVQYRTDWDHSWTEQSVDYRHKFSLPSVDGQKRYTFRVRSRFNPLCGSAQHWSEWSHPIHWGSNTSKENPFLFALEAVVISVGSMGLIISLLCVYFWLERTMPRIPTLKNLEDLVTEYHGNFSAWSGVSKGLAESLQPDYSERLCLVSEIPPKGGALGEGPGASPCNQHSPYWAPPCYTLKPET

Regarding “N88R/IL2 (from UniProt P60568 21-153) (ligand)”, the Percentage of pSTAT5+ cells, Treg cells in human PBMC, 10^-8 M protein was found to be 99.9%.
